Assay results: US20140255408A1 (Janssen / Centocor, published 2014)
Substitutions are numbered along the chain they refer to. Read-outs that look alike come from different tables or passages of the source. Each block holds one binder with its values, some of them ahead of it.

Assays:
human EGFR on cells [1] = target: T1, human EGFR on cells (human, UniProt P00533 25-1210); test: cell-based or functional assay
[2] = target: T2, recombinant human extracellular domain of EGFR fused to an IgG1 Fc (human, UniProt P00533 25-645); test: SPR (ProteOn), EGFR-Fc captured on anti-human Fc IgG, FN3 domain as analyte
T2 construct: Bought from R&D Systems; The residues are stated for the panning reagent; also called EGFR-Fc; EGF R-Fc; not shown: IgG1 Fc
Experimental: Select EGFR-binding FN3 domains were screened to identify those with slow off-rates (koff) in binding to EGFR-Fc on a ProteOn XPR-36 instrument (Bio-Rad) to facilitate selection of high affinity binders. Goat anti-human Fc IgG (R&D systems), at a concentration of 5 μg/mL, was directly immobilized via amine coupling (at pH 5.0) on all 6 ligand channels in horizontal orientation on the chip with a flow rate of 30 μL/min in PBS containing 0.005% Tween-20. The immobilization densities averaged about 1500 Response Units (RU) with less than 5% variation among different channels. EGFR-Fc was captured on the anti-human Fc IgG surface to a density around 600 RU in vertical ligand orientation. All tested FN3 domains were normalized to a concentration of […] and tested for their binding in horizontal orientation. All 6 analyte channels were used for the FN3 domains to maximize screening throughput. The dissociation phase was monitored for 10 minutes at a flow rate of 100 μL/min. The inter-spot binding signals were used as references to monitor non-specific binding between analytes and the immobilized IgG surface, and were subtracted from all binding responses. The processed binding data were locally fit to a 1:1 simple Langmuir binding model to extract the koff for each FN3 domain binding to captured EGFR-Fc.
Binding affinity of selected EGFR-binding FN3 domains to recombinant EGFR extracellular domain was further characterized by surface Plasmon resonance methods using a Proteon Instrument (BioRad). The assay set-up (chip preparation, EGFR-Fc capture) was similar to that described above for off-rate analysis. Selected EGFR binding FN3 domains were tested at 1 μM concentration in 3-fold dilution series in the horizontal orientation. A buffer sample was also injected to monitor the baseline stability.

human EGFR on cells [3] = target: T1, human EGFR on cells; test: A431 cell binding assay, anti-penta-His-Alexa488 detection
human EGFR on cells [4] = target: T1, human EGFR on cells; test: A431 cell EGF competition assay, competitor biotinylated EGF
human c-Met on cells [5] = target: T3, human c-Met on cells (human, UniProt P08581 25-1390); test: cell-based or functional assay
[6] = target: T4, Recombinant human c-Met Fc chimera (human, UniProt P08581 16-932); test: SPR (ProteOn), c-Met-Fc captured on anti-human Fc IgG, FN3 domain as analyte
T4 construct: not shown: Fc part

human c-Met on cells [7] = target: T3, human c-Met on cells; test: H441 cell binding assay, anti-His detection
Experimental: Purified FN3 domains (50 μL/well; 0 to 1000 nM) were added to the cells for 1 hour at 4° C. in duplicate plates. […] Cells were incubated with biotinylated-anti HIS antibody (diluted 1:160 in FACS stain buffer, 50 μL/well, R&D Systems, cat #BAM050) for 30 minutes at 4° C. […] Cells were washed three times with FACS stain buffer (150 μL/well) and left in FACS stain buffer (50 μL/well).

human c-Met on cells [8] = target: T3, human c-Met on cells; test: cell-based or functional assay; remark: listed apart in the source
[9] = target: T4, Recombinant human c-Met Fc chimera; test: HGF competition assay on coated c-Met-Fc, competitor biotinylated HGF
[10] = target: T4, Recombinant human c-Met Fc chimera; test: SPR (ProteOn), protocol of Example 3, recombinant c-Met extracellular domain
[11] = target: T2, recombinant human extracellular domain …; test: SPR (ProteOn), protocol of Example 3, recombinant EGFR extracellular domain
Experimental: All 6 analyte channels were used for the FN3 domains to maximize screening throughput. The dissociation phase was monitored for 10 minutes at a flow rate of 100 μL/min. The inter-spot binding signals were used as references to monitor non-specific binding between analytes and the immobilized IgG surface, and were subtracted from all binding responses. The processed binding data were locally fit to a 1:1 simple Langmuir binding model to extract the koff for each FN3 domain binding to captured EGFR-Fc.
Binding affinity of selected EGFR-binding FN3 domains to recombinant EGFR extracellular domain was further characterized by surface Plasmon resonance methods using a Proteon Instrument (BioRad). The assay set-up (chip preparation, EGFR-Fc capture) was similar to that described above for off-rate analysis. Selected EGFR binding FN3 domains were tested at 1 μM concentration in 3-fold dilution series in the horizontal orientation. A buffer sample was also injected to monitor the baseline stability. […] Two sets of reference data were subtracted from the response data: 1) the inter-spot signals to correct for the non-specific interactions between the EGFR-binding FN3 domain and the immobilized IgG surface; 2) the buffer channel signals to correct for baseline drifting due to the dissociation of captured EGFR-Fc surface over time. The processed binding data at all concentrations for each FN3 domain were globally fit to a 1:1 simple Langmuir binding model to extract estimates of the kinetic (kₘ, koff) and affinity (KD) constants.

human EGFR on cells [12] = target: T1, human EGFR on cells; test: cell-based or functional assay; remark: listed apart in the source
human c-Met on cells [13] = target: T3, human c-Met on cells; test: cell-based or functional assay; remark: listed apart in the source

NCI-H292 Growth IC50 (human EGFR on cells [1]): 86 nM
NCI-H322 Growth IC50 (human EGFR on cells [1]): 65 nM
Phospho-EGFR IC50 (A431 cells) (human EGFR on cells [1]): > 2500 nM
Kd [2]: 1.89 nM
EC50 (human EGFR on cells [3]): 4 nM
IC50 (human EGFR on cells [4]): 9.8 nM
B1: P53A1R5-17 (designed binder, not shown: small tags and cut ends)
chain: LPAPKNLVVSEVTEDSLRLSWADPHGFYDSFLIQYQESEKVGEAINLTVPGSERSYDLTGLKPGTEYTVSIYGVHNVYKDTNMRGLPLSAEFTT

Phospho-EGFR IC50 (A431 cells) (human EGFR on cells [1]): 170 nM
Kd [2]: 7.78 nM
EC50 (human EGFR on cells [3]): 12 nM
IC50 (human EGFR on cells [4]): 9.8 nM
B2: P54AR4-48 (designed binder, not shown: small tags and cut ends)
chain: B1 chain with A22D, H25R, D29E

Phospho-EGFR IC50 (A431 cells) (human EGFR on cells [1]): 184 nM
Kd [2]: 9.62 nM
EC50 (human EGFR on cells [3]): 16 nM
IC50 (human EGFR on cells [4]): 21 nM
B3: P54AR4-17 (designed binder, not shown: small tags and cut ends)
chain: B1 chain with A22T, D23Y, P24D, H25R, G26D, F27G

NCI-H292 Growth IC50 (human EGFR on cells [1]): 83 nM
NCI-H322 Growth IC50 (human EGFR on cells [1]): 73 nM
Phospho-EGFR IC50 (A431 cells) (human EGFR on cells [1]): 141 nM
Kd [2]: 0.197 nM
EC50 (human EGFR on cells [3]): 9.4 nM
IC50 (human EGFR on cells [4]): 4.6 nM
B4: P54AR4-73 (designed binder, not shown: small tags and cut ends)
chain: B1 chain with A22T, D23W, H25Y, G26A, F27D, Y28L

NCI-H292 Growth IC50 (human EGFR on cells [1]): 5.9 nM
NCI-H322 Growth IC50 (human EGFR on cells [1]): 9.2 nM
Phospho-EGFR IC50 (A431 cells) (human EGFR on cells [1]): 18 nM
Kd [2]: 0.255 nM
EC50 (human EGFR on cells [3]): 2.2 nM
IC50 (human EGFR on cells [4]): 1.8 nM
B5: P54AR4-83 (designed binder, not shown: small tags and cut ends)
chain: B1 chain with A22D, H25W, G26A, D29E

EC50 (human EGFR on cells [3]): 77 nM
B6: P54AR4-74 (designed binder, not shown: small tags and cut ends)
chain: B1 chain with A22G, D23Y, P24N, H25G, G26D, F27H, Y28F

Inhibition of Proliferation of U87-MG cells (IC50) (human c-Met on cells [5]): 464 nM
pMet inhibition in H441 cells (IC50) (human c-Met on cells [5]): 1.08 µM
Kd [6]: 10.1 nM
EC50 (human c-Met on cells [7]): 18.7 nM
inhibition of c-Met phosphorylation in HGF-stimulated NCI-H292 cells (IC50) (human c-Met on cells [8]): 610 nM
IC50 [9]: 5.2 nM
B7: P114AR5P74-A5 (designed binder, not shown: small tags and cut ends)
chain: LPAPKNLVVSRVTEDSARLSWTAPDAAFDSFWIRYDEVVVGGEAIVLTVPGSERSYDLTGLKPGTEYYVNILGVKGGSISVPLSAIFTT

Inhibition of Proliferation of U87-MG cells (IC50) (human c-Met on cells [5]): 196 nM
pMet inhibition in H441 cells (IC50) (human c-Met on cells [5]): 124 nM
Kd [6]: 4.2 nM
EC50 (human c-Met on cells [7]): 3.4 nM
IC50 [9]: 0.7 nM
B8: P114AR7P94-E5 (designed binder, not shown: small tags and cut ends)
chain: B7 chain with D36F, V38F, V39L, V40G, G41S, Y68A, L72M, S78R, I79V

Inhibition of Proliferation of U87-MG cells (IC50) (human c-Met on cells [5]): 130 nM
pMet inhibition in H441 cells (IC50) (human c-Met on cells [5]): 188 nM
Kd [6]: 4.2 nM
EC50 (human c-Met on cells [7]): 4.4 nM
IC50 [9]: 1.4 nM
B9: P114AR7P95-F10 (designed binder, not shown: small tags and cut ends)
chain: B7 chain with D36F, V38F, V39T, V40T, G41A, Y68V, L72M, V81P

Inhibition of Proliferation of U87-MG cells (IC50) (human c-Met on cells [5]): 9.3 nM
pMet inhibition in H441 cells (IC50) (human c-Met on cells [5]): 5 nM
Kd [6]: 0.4 nM
EC50 (human c-Met on cells [7]): 1.4 nM
IC50 [9]: 0.2 nM
B10: P114AR7P94-A3 (designed binder, not shown: small tags and cut ends)
chain: B7 chain with D36F, V38F, V39L, V40G, G41S, Y68V, L72M, S78K, V81P

EC50 (human EGFR on cells [3]): 84 nM
IC50 (human EGFR on cells [4]): 121 nM
B11: P54AR4-81 (designed binder, not shown: small tags and cut ends)
chain: LPAPKNLVVSEVTEDSLRLSWDYDLGVYFDSFLIQYQESEKVGEAINLTVPGSERSYDLTGLKPGTEYTVSIYGVHNVYKDTNMRGLPLSAEFTT

Kd [10]: 6.2 nM
Kd [11]: 1.1 nM
H292 pEGFR inhibition in H292 cells (IC50) (human EGFR on cells [12]): 13.6 nM
pMet inhibition in H441 cells (IC50) (human c-Met on cells [13]): 179 nM
B12: ECB95 (designed binder)
chain: MLPAPKNLVVSEVTEDSARLSWDDPWAFYESFLIQYQESEKVGEAIVLTVPGSERSYDLTGLKPGTEYTVSIYGVHNVYKDTNIRGLPLSAIFTTAPAPAPAPAPLPAPKNLVVSRVTEDSARLSWTAPDAAFDSFWIRYFEFVGSGEAIVLTVPGSERSYDLTGLKPGTEYVVNILGVKGGSISPPLSAIFTT
notes: not shown: C-terminal poly-histidine tag

Kd [10]: 9 nM
Kd [11]: 16.9 nM
H292 pEGFR inhibition in H292 cells (IC50) (human EGFR on cells [12]): 812 nM
pMet inhibition in H441 cells (IC50) (human c-Met on cells [13]): 29.9 nM
B13: ECB107 (designed binder)
chain: B12 chain with W26H
notes: as for B12

Kd [10]: 2.1 nM
Kd [11]: 17.3 nM
H292 pEGFR inhibition in H292 cells (IC50) (human EGFR on cells [12]): 432 nM
pMet inhibition in H441 cells (IC50) (human c-Met on cells [13]): 26 nM
B14: ECB109 (designed binder)
chain: B12 chain with W26H, V144L, G178S
notes: as for B12

Kd [10]: 22.1 nM
Kd [11]: 1.6 nM
H292 pEGFR inhibition in H292 cells (IC50) (human EGFR on cells [12]): 24.7 nM
pMet inhibition in H441 cells (IC50) (human c-Met on cells [13]): 835 nM
B15: ECB96 (designed binder)
chain: B12 chain with G145S, S146K, E148D
notes: as for B12

Kd [10]: 5.1 nM
Kd [11]: 16.7 nM
H292 pEGFR inhibition in H292 cells (IC50) (human EGFR on cells [12]): 367 nM
pMet inhibition in H441 cells (IC50) (human c-Met on cells [13]): 53.3 nM
B16: ECB106 (designed binder)
chain: B12 chain with W26H, V144L, S183K
notes: as for B12

Kd [10]: 4.3 nM
Kd [11]: 1 nM
H292 pEGFR inhibition in H292 cells (IC50) (human EGFR on cells [12]): 5.1 nM
pMet inhibition in H441 cells (IC50) (human c-Met on cells [13]): 53.8 nM
B17: ECB94 (designed binder)
chain: B12 chain with V144L, S183K
notes: as for B12

Kd [10]: 1.7 nM
Kd [11]: 1.3 nM
H292 pEGFR inhibition in H292 cells (IC50) (human EGFR on cells [12]): 16.6 nM
pMet inhibition in H441 cells (IC50) (human c-Met on cells [13]): 24.2 nM
B18: ECB97 (designed binder)
chain: B12 chain with V144L, G178S
notes: as for B12

Kd [10]: 25.5 nM
Kd [11]: 15.3 nM
H292 pEGFR inhibition in H292 cells (IC50) (human EGFR on cells [12]): 814 nM
pMet inhibition in H441 cells (IC50) (human c-Met on cells [13]): 126 nM
B19: ECB108 (designed binder)
chain: B12 chain with W26H, G145S, S146K, E148D
notes: as for B12

Kd [10]: 2.6 nM
Kd [11]: 0.2 nM
H292 pEGFR inhibition in H292 cells (IC50) (human EGFR on cells [12]): 4.2 nM
B20: ECB15 (designed binder)
chain: B12 chain with I84M, V144L, L177M, S183K
notes: as for B12
